The text below walks through data of US6033845.

Assay [1] addresses maltose binding protein (Escherichia coli (strain K12)) [MBP: P0AEX9].
Assay [2] addresses 7B-maltose binding protein fusion protein (Feline Infectious Peritonitis Virus (Applicant's field isolate)) [MBP: P0AEX9]. Conditions: scale: colonies, mean less control, at 20 µg/ml 7B.

In assay [1], “white blood cells from a cat known to have clinical FIP (cat #88) (cells without a defined receptor)” showed a No. of Colonies (T-cell colony stimulation, two days) (colonies, mean less control) of -1. In assay [2], this substance had a No. of Colonies (T-cell colony stimulation, two days) of 31.
